Test system: MS2 coat protein
Assay: apparent KD of MS2 coat protein; higher = weaker reporter binding
Details: Eterna round: R107
Method in brief: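 The buffer was 100 mM Tris-HCl pH 7.5 with 80 mM KCl and 4 mM MgCl2, used without or with constant ligand. In it, RNA switches transcribed on-chip from Illumina sequencing clusters were titrated with SNAP-549-labelled MS2 coat protein in twofold steps from 0.7 or 1.5 nM to 3 µM. Apparent KD for each design is the median of its normalised cluster binding-curve fits.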

[1] = input ligand: theophylline 20 uM
[2] = input ligand: tryptophan 2.4 mM
[3] = input ligand: theophylline 2 mM

Sequence	apparent KD of MS2 coat protein (input ligand: arginine 13.2 mM)	apparent KD of MS2 coat protein [1]	apparent KD of MS2 coat protein [2]	apparent KD of MS2 coat protein (input ligand: none)	apparent KD of MS2 coat protein [3]
UGACAUUGCUGCGAUACCAGACAUGAGGAUCACCCAUGUACCAAGGUAAGAAAAUAACAUGUCCCUUGGCAGCGCAGCAAUGUCU [MAT - Exclusion Theophlline B - Mod of Eli - D1]	18.9 nM	40.2 nM	14.4 nM	–	–
UGACGAUACCUGGAUACCAGCGACAUGAGGAUCACCCAUGUAUGAGGAUCAGCCAUGAUAUGCCCUUGGCAGCCACGAAAGUCUU [VUVMULLIN]	16.8 nM	27.5 nM	18.6 nM	15.8 nM	150 nM
UGAGAGACCAGAAGGAGCGACAUGAGGAUCACCCAUGUCUCCCGUUAUGGGAGUUCUUUAGGUCAGGUAGGUCGCUGGUCUCUCA [#1 Exclusion - Arginine B Attempt #8 (Inspired by Omei)]	59.9 nM	120 nM	87.8 nM	132 nM	149 nM
UGAGUUCGCUGAUGGGCUAAGUCAGGUGAUACCAGCCACUCCCGCGGCCCUUGGCAGCACAUGAGGAUCACCCAUGUAGAACUUG [Vexetela]	16 nM	31.1 nM	20.2 nM	18.4 nM	374 nM
UGAUCCUGCAGGGAUACCAGCGCCGCUUGAUAACUGUGCACAUGAGGAUCACCCAUGUAGCGCCCUUGGCAGCCCAGCUAGAGGG [Same State Theophylline B GF23]	21.8 nM	33.7 nM	28.3 nM	–	–
UGAUGGAACGGAAGGAGCGUGUAAGAACAAGAACAUGAGGAUCACCCAUGUAUUAAUUUAACACAGGUAGGUCGCCGAGAUAUUG [11.E]	19.8 nM	23.1 nM	13.5 nM	14.5 nM	17.3 nM
UGCCGAGACGUGGAUUACCCGUGUACCGAAGGAGCGCCCGAAAGGGCAGGUAGGUCGCGGAGGACAUGAGGAUCACCCAUGUUUA	202 nM	55 nM	55.7 nM	56.3 nM	79.8 nM
UGCUACAUGAGGAUCACCCAUGUGGGUGAUACCAGCAUUCGUUAAUGCCCUUGGCAGCGCAGCCGAACCAUUCAUUCGGCAGAUC [Laxeor]	36.2 nM	214 nM	328 nM	125 nM	382 nM
UGGAGUAGGGUAAAUAGGAUAAGUACAGAAGGAGCGCGAAUAAACGCAGGUAGGUCGCUGGAACACAUGAGGAUCACCCAUGUUG [Same State Arginine A GF 24]	20.9 nM	26.2 nM	25.4 nM	25.4 nM	17.8 nM
UGGAGUAUCAGACAUGAGGAUCACCCAUGUCGAGGACCGGUACGGCCGCCACUCGGCAGUUUGCGUCCUCAGGUACUCCGGGUAA [Edlatearis]	16.8 nM	26.9 nM	27.7 nM	11.2 nM	15.3 nM
UGGGAAGGAGGAAGGAGCGCCAUAAGGGUGACAGUCUGGGUACAUGAGGAUCACCCAUGUAGGCAGGUAGGUCGCCUAGCUCUCA [XArg-B16]	9.4 nM	12.9 nM	9.56 nM	9.14 nM	12.9 nM
UGGGCAUACAUGAGGAUCACCCAUGUAGAUACCAGCACUAGCCUGUGCCCUUGGCAGCUAACCGGGUCGAGAACUUAGUGCUCCU [Lexele]	10.9 nM	21.9 nM	11.5 nM	–	–
UGGGUAGCAUAGAUUGAUAGCUACACUGAAGGAGCGAGGAUAACCUCAGGUAGGUCGCAGACAUGAGGAUCACCCAUGUAGAUGG [Same State Arginine A GF17]	77.7 nM	174 nM	209 nM	254 nM	252 nM
UGGUACAUGAGGAUCACCCAUGUUCCAGAUACCAGUGUCCCGGUGCACCCUUGGCAGCUGGUGGUACAUGAGGAUCACCCAUGUG [Exclusion Theophylline A GF13]	17.9 nM	56.3 nM	37.3 nM	42.2 nM	73.1 nM
UGGUACUAGGCGGCCGCCACUGGGAGAUACAUGAGGAUCACCCAUGUUUAAUGCCGAGAGGCAACUAGGACCGGGCCUAGUACAU	63.6 nM	133 nM	–	–	127 nM
UGGUGUAGGGUAAAUAGGCUGAGUACAGAAGGAGCGCGAAUAAACGCAGGUAGGUCGCUGGACACAUGAGGAUCACCCAUGUUGA [Same State Arginine A GF 29]	10.8 nM	31.9 nM	21.2 nM	20.5 nM	27.3 nM
UGUAACAUGAGGAUCACCCAUGUGAGUGAUACCAGACUAGUAUUAGUCCCUUGGCAGCACGCUGGGCGAGUGUAUAGUCUAUGCG [Same State - Theophylline A (Freestyle 15)]	69 nM	125 nM	75.5 nM	–	–
UGUAACAUGAGGAUCACCCAUGUGAGUGAUACCAGACUAGUGUUAGUCCCUUGGCAGCACGCUGGGCGAGUGUGUAGUCUAUGCG [Same State - Theophylline A (Freestyle 16)]	60.9 nM	136 nM	105 nM	108 nM	117 nM
UGUAACAUGAGGAUCACCCAUGUGAGUGAUACCAGACUAGUGUUGGUCCCUUGGCAGCACGCUGGACGAAUGUGUAGUCUAUGCG [Same State - Theophylline A (Freestyle 18)]	59.5 nM	107 nM	77.4 nM	–	–
UGUAACAUGAGGAUCACCCAUGUGAGUGAUACCAGAUUAGUAUUAGUCCCUUGGCAGCACGUUGGGCGAGUGUAUAGUCUAUGCG [Same State - Theophylline A (Freestyle 13)]	90.9 nM	162 nM	–	–	–

Sequence	apparent KD of MS2 coat protein (input ligand: arginine 13.2 mM)	apparent KD of MS2 coat protein [1]	apparent KD of MS2 coat protein [2]	apparent KD of MS2 coat protein (input ligand: none)	apparent KD of MS2 coat protein [3]
UGUAACAUGAGGAUCACCCAUGUGCACGAUACCAGCUUAUUGAUAGGCCCUUGGCAGCGUAUGCGGAAGCUGUAUAAUAUAUAUC [#27 SameState-TheophyllineA]	10.3 nM	18.6 nM	10.8 nM	–	–
UGUAACAUGAGGAUCACCCAUGUGCACGAUACCAGCUUAUUGGUAGGCCCUUGGCAGCGUAUUCGGAAGAUGUAUAAUAUAUAUC [#26 SameState-TheophyllineA]	12.3 nM	17.4 nM	12.1 nM	–	–
UGUAAUGGGAUCAACCCAUGAGAGUCUGAAGGAGCGAUCGUAAGAUCAGGUAGGUCGCAGGAGACAUGAGGAUCACCCAUGUAUA [Arg A Ex t2]	33.3 nM	56.6 nM	39.5 nM	38.7 nM	51.1 nM
UGUACCAUGUCGGCCGCCACUUGAAAUAAACAAGAGGAUCACCCUUGUGACGUCAAAGACGUCUCAAGGACCGGGACAUGGUACU [TryBS Zipper #StaticStem #Zipper]	168 nM	281 nM	19 nM	313 nM	357 nM
UGUAUGGACUGAAGGAGCGCAUCAAAAUAACAUGAGGAUCACCCAUGUAAGGCGAAAGCCGUGCAGGUAGGUCGCAGUCCAUACU [ArgBX 3]	14.9 nM	17.3 nM	15.3 nM	15.6 nM	18.8 nM
UGUAUGGACUGAAGGAGCGCCUCAAAAUAACAUGAGGAUCACCCAUGUAGGCGAAAGCCUGGGCAGGUAGGUCGCAGUCCAUACU [ArgBX 2 #StaticStem #MS2Late]	20.9 nM	21.4 nM	12.4 nM	12.9 nM	13.4 nM
UGUAUGGACUGAAGGAGCGGAUGAUAUCAUGAGGAUCACCCAUGGAAUAAGGCGAAAGCCAUCCAGGUAGGUCGCAGUCCAUACU	45.6 nM	131 nM	82.4 nM	72.7 nM	128 nM
UGUAUGGACUGAAGGAGCGGGAAAAUAACCUGAGGAUCACCCAGGUAAAAGGCGAAAGCCACCCAGGUAGGUCGCAGUCCAUACU	5.69 nM	10.2 nM	12.5 nM	10.7 nM	10.6 nM
UGUAUGGACUGAAGGAGCGGGUUGAUAACCUGAGGAUCACCCAGGUAAAAGGCGAAAGCCACCCAGGUAGGUCGCAGUCCAUACU	16.3 nM	21.6 nM	20 nM	18.1 nM	19.7 nM
UGUAUGGACUGAAGGAGCGGGUUGAUAACUUGAGGAUCACCCAGGUAAAAGGCGAAAGCCACCCAGGUAGGUCGCAGUCCAUACU	52.6 nM	58.2 nM	66.2 nM	57.9 nM	69.2 nM
UGUAUGGACUGAAGGAGCGGUAGAUAACUUGAGGAUCACCCAGGUAAUAAGGCGAAAGCCUACCAGGUAGGUCGCAGUCCAUACU	203 nM	171 nM	138 nM	144 nM	153 nM
UGUAUGUGAUCUGAUACCAGAGUGAAUAAACCUGAGGAUCACCCUGGUACGCGAAAGCGACUCCCUUGGCAGCAGAUCGCAUACU	127 nM	108 nM	156 nM	163 nM	21.8 nM
UGUAUGUGAUCUGAUACCAGAGUGACGCGAAAGCGACCUGAGGAUCACCCUGGUAAAUAACUCCCUUGGCAGCAGAUCGCAUACU	43.8 nM	36.6 nM	48.3 nM	45 nM	17.8 nM
UGUAUGUGAUCUGAUACCAGCGUUGAUAACCUGAGGAUCACCCUGGUAAGGCGAAAGCCACGCCCUUGGCAGCAGAUCGCAUACU	158 nM	79.1 nM	239 nM	–	19.8 nM
UGUAUGUGAUCUGAUACCAGCUAGCGGAAACGCAAGCUUGAGGAUCACCCAAGUGGAAUAAGCCCUUGGCAGCAGAUCGCAUACU [Denovo 5 #StaticStem #AlternativeMS2]	215 nM	197 nM	376 nM	266 nM	15.8 nM
UGUAUGUGAUCUGAUACCAGCUUAAUAACAUGAGCAUCAGCCAUGUGGAGCGGAAACGCUAGCCCUUGGCAGCAGAUCGCAUACU [Denovo 11 #StaticStem #AlternativeMS2]	101 nM	79 nM	129 nM	143 nM	13.2 nM
UGUAUGUGAUCUGAUACCAGCUUUGAUAACCUGAGGAUCACCCUGGUAAGGCGAAAGCCAAGCCCUUGGCAGCAGAUCGCAUACU	40.1 nM	34.5 nM	37.3 nM	34.5 nM	21.9 nM
UGUAUGUGAUCUGAUACCAGUCCAACUGGUAAAACCUGAGGAACACCCAGGUAAAAUUGGGACCCUUGGCAGCAGAUCGCAUACU	99.5 nM	147 nM	264 nM	246 nM	23 nM
UGUAUGUGAUUUGAUACCAGACCAACUGGUAAAACAUGAGGAUCACCCAUGUAAACUUGGGUCCCUUGGCAGCAAAUCGCAUACU [SSTheo B #22]	67.8 nM	45.6 nM	82.7 nM	–	–

Reference: the supplement of paper PMC9170038
